The target of this experiment is His-tagged SARS-CoV-2 RBD (early pandemic, Wuhan) (SARS-CoV-2, UniProt P0DTC2). Briefly: SPR. In general terms: SPR reads the build-up and loss of mass on a sensor chip optically.

B1: Beta-55 mAb (IgG) (antibody, V domains shown)
VH: QVQLQESGPGLVKPSETLSLTCTVSGDSISSSRYYWGWIRQPPGKGLEWIGTFYYSGITYYNPSLKSRVTIFVDTSKNQFSLKLSSVTAADTAVYYCARPRPPDYYDNSGALLFDIWGQGTMVTVSS
VL: AIRMTQSPSTLSASVGDRVTIACRASQSISAWLAWYQQKPGKAPKLLIYKASSLESGVPSRFSGSGSGTEFTLTINSLQPDDFATYYCQQYISSSPWTFGQGTKVEIK
Usually koff stands for the first-order rate constant of dissociation. A lower koff goes with slow dissociation. As for B1, the koff is 0.00018 s⁻¹.

B2: EY6A mAb (IgG) (antibody, V domains shown)
VH: EVQLVESGGGVVQPGRSLRLSCAASAFTFSSYDMHWVRQAPGKGLEWVAVISYDGSNKYYADSVKGRFTISRDNSKNTLYLQMNSLRAEDTAVYYCAKDGGKLWVYYFDYWGQGTLVTVSS
VL: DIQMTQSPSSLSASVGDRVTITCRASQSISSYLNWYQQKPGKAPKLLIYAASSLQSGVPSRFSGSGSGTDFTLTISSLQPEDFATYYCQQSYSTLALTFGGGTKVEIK
Take B2: the koff is 0.0048 s⁻¹.

Values taken from publication PMC8723827 (2022).
